The values below come from publication PMC7679444, “Regulation of cytokine signaling through direct interaction between cytokine receptors and the ATG16L1 WD40 domain” (Nature Communications, 2020).

The labels stand for the following.
B1: TMEM59 peptide 268–280 with decreased Y268-E272 distance (YE) (peptide, UniProt Q9BXS4 268-280, looked up)
peptide: Tds-YEKLSIYGDL
modifications: reading uncertain
notes: TMEM59 residues 268-280 with the native residues between Y268 and E272 deleted; only the changed stretch is printed; also called YE (Y268-E272); source: synthetic peptide on microarray, ordered from JPT (Germany)
B2: TMEM59 peptide 268–280 with increased Y268-E272 distance (YVAPAASE) (peptide, UniProt Q9BXS4 268-280, looked up)
peptide: Tds-YVAPAASEKLSIYGDL
modifications: reading uncertain
notes: TMEM59 residues 268-280 with extra alanines between Y268 and E272; only the changed stretch is printed; also called YVAPAASE (Y268-E272); source: synthetic peptide on microarray, ordered from JPT (Germany)
B3: TMEM59 peptide 268–280 with increased E272-Y277 distance (EKAALASAIY) (peptide, UniProt Q9BXS4 268-280, looked up)
peptide: Tds-YVPSEKAALASAIYGDL
modifications: reading uncertain
notes: TMEM59 residues 268-280 with extra alanines between E272 and Y277; only the changed stretch is printed; source: synthetic peptide on microarray, ordered from JPT (Germany)
B4: TMEM59 peptide 268–280 with decreased E272-Y277 distance (ELY) (peptide, UniProt Q9BXS4 268-280, looked up)
peptide: Tds-YVPSELYGDL
modifications: reading uncertain
notes: TMEM59 residues 268-280 with native residues between E272 and Y277 deleted so that one (L) is left; only the changed stretch is printed; source: synthetic peptide on microarray, ordered from JPT (Germany)
B5: TMEM59 peptide (residues 268–280), wild type (peptide, UniProt Q9BXS4 268-280, looked up)
peptide: Tds-YVPSEKLSIYGDL
modifications: reading uncertain
notes: TMEM59 intracellular domain, residues 268-280; also called active TMEM59 peptide; source: synthetic peptide on microarray, ordered from JPT (Germany)

Where no end group is shown, it is not given here. Tds = not defined here

The target in this assay is T1, GST-HA-ATG16L1(231–607) (human, UniProt Q676U5 231-607).
T1 construct: ATG16L1, human, residues 231-607 (results and legend); the methods name the construct 230-607; includes the WD40 domain (WDD, 320-607); Limits differ between results (231-607) and methods (230-607); also called GST-HA-ATG16L1-230-607; recombinant protein that includes the WDD; source: HEK-293T, retrovirally transduced, purified (GSH-agarose, eluted with reduced GSH, concentrated)
T1 sequence (Q676U5 231-607): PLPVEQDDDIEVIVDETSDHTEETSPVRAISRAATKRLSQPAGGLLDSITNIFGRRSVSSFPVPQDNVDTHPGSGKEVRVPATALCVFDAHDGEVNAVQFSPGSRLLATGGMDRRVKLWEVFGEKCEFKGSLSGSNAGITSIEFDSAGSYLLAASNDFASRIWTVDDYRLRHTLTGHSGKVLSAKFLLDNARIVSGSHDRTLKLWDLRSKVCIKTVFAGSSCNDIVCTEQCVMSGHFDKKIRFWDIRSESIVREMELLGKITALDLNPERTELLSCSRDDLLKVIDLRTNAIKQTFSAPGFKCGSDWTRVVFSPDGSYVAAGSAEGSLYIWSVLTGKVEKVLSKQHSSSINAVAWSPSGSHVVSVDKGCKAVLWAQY
Briefly: peptide or protein array; peptides immobilised on glass slides through the N-terminal end with a Tds spacer (JPT); GST-HA-ATG16L1 fragment in PBS/0,05% Tween-20 with 5% BSA, 20-800 nM, 2 h at RT plus overnight at 4 °C; detected with anti-HA and anti-GST and Cy5-labelled secondary antibodies; binding normalised to the wild-type peptide. To be noted: both partners purified.
Consider B1, for which the binding result is “binds”. The value for B2 was “binds”. For B3 the value was “binds”; for B4, “binds”.

Turning to B5, the binding result is given as “binds”.
